Measurements: US12366576B2, “Compositions, assays, and methods for direct modulation of fatty acid metabolism” (Dana-Farber Cancer Institute, Inc., priority 2016, dated 2025)
Bridge positions count the residues as written; N and C are the ends. Square brackets hold non-standard residues; d marks the D form. Ends that are not written are not given here. * marks the point of attachment. Biotin = O=C1N[C@H]2[C@H](CS[C@H]2CCCCC(=O)*)N1; S5 = C=CCCC[C@](C)(N)C(=O)O

What was measured:
VLCAD [1] = target: T1, VLCAD (Homo sapiens, UniProt P49748); assay: Biotinylated SAHB pulldown of recombinant protein; format: binding; settings: 5 nmol SAHB with 10 pmol rVLCAD
T1 construct: 10x His (N); made in house; host or cells: E. coli BL21(DE3), pET19b
T1 sequence (P49748 40-655): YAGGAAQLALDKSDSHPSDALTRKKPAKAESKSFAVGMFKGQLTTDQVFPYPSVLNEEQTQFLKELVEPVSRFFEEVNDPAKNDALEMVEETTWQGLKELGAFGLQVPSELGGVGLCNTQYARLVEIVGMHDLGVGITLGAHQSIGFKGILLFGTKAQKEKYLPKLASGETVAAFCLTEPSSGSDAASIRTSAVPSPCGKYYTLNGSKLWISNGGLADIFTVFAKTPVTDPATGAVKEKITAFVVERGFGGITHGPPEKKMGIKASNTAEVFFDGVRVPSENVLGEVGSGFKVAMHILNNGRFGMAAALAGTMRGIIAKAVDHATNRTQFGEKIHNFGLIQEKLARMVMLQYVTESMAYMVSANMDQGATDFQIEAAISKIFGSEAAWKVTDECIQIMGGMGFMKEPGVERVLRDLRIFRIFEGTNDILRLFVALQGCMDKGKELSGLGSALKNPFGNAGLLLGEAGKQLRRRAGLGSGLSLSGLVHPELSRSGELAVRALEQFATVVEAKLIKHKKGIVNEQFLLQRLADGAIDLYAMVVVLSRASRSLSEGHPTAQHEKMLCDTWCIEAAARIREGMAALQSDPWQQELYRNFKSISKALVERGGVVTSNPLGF
Source text: To validate the MS result, the pulldowns were repeated and eluates run on a gel for anti-VLCAD Western blot analysis. […] All peptides faithfully recapitulated native BH3-binding propensities for endogenous MCL-1 protein (FIG. 8). The eluates were then probed for the other members of the acyl-CoA dehydrogenase family that manifest shorter fatty acid substrate specificities. MCL-1 SAHBD was able to pull down VLCAD, but not MCAD or SCAD (FIG. 9). Because the traditional MCL-1 staple location differs from that of the BIM, BID, and BAD SAHBs, it was important to confirm that the observed VLCAD binding specificity was due to BH3 sequence selectivity, not staple position. A BIM SAHB with the traditional MCL-1 staple (BIM SAHBF), and a MCL-1 stapled peptide with the traditional BIM staple (MCL-1 SAHBA), were generated. […]
Wild-type MEFs were trypsinized, washed once with cold PBS, and lysed on ice with NP-40 lysis buffer (50 mM Tris, pH 7.4, 150 mM NaCl, 0.5% (v/v) NP-40, complete protease inhibitor pellet (Roche)) using 1 ml of lysis buffer for every 10 million cells lysed. Cellular debris was pelleted at 14,000 g for 10 min at 4° C., and the supernatant was quantified using the BCA Protein Assay Kit (Thermo Fisher Scientific). […]

endogenous MCL-1 = assay: Biotinylated SAHB pulldown from MEF lysates, anti-MCL-1 Western analysis; format: binding, mouse; settings: wild-type MEF lysates, 15 nmol biotinylated SAHB
Protocol: An exploratory proteomics analysis was conducted to identify proteins that interact with the MCL-1 BH3 domain helix. An extensive library of MCL-1 stapled BH3 peptides (FIG. 2) was generated to both identify novel protein interactors by mass spectrometry and then deploy the stapled peptide constructs as novel probes to dissect and pharmacologically modulate the identified protein interactors and associated signaling pathways. As an example, an N-terminally biotinylated stapled peptide designed based on the sequence of MCL-1's BH3 domain (Btn-MCL-1 SAHBD), or vehicle, was incubated with wild-type mouse embryonic fibroblast (MEF) lysates, followed by high stringency streptavidin capture. To validate the proteomics workflow and ensure that Btn-MCL-1 SAHBD could, in fact, engage protein interactors in a lysate, eluates were first run on a gel for anti-MCL-1 Western analysis. […] For mass spectrometry (MS) analysis, eluates were run on a reducing/denaturing gel followed by Coomassie staining (FIG. 4) and in-gel digestion was performed before injection on the instrument.
The binding determinants for the MCL-1 BH3/VLCAD interaction were investigated by generating a series of biotinylated MCL-1 SAHBD alanine point mutants (FIG. 18A) and performing streptavidin pull-downs from MEF lysates, followed by VLCAD and MCL-1 western analysis of the resulting eluates. […] Native alanines and residues not mutated are colored white.
Wild-type MEFs were trypsinized, washed once with cold PBS, and lysed on ice with NP-40 lysis buffer (50 mM Tris, pH 7.4, 150 mM NaCl, 0.5% (v/v) NP-40, complete protease inhibitor pellet (Roche)) using 1 ml of lysis buffer for every 10 million cells lysed. Cellular debris was pelleted at 14,000 g for 10 min at 4° C., and the supernatant was quantified using the BCA Protein Assay Kit (Thermo Fisher Scientific). 2 mg of lysate per pulldown were then exposed to 50 μL of pre-equilibrated High Capacity Streptavidin Agarose beads (Thermo Fisher Scientific). […] The beads were then pelleted and washed with NP-40 lysis buffer three times before eluting the protein sample from the beads by heating at 70° C. for 10 min in SDS loading buffer. Samples were then subjected to electrophoresis and either Western analysis or Coomassie stain (SimplyBlue Safe Stain, Thermo Fisher Scientific). […] Coomassie stained gels were then processed for proteomics analysis (see below). Biotinylated SAHB pulldowns of recombinant protein were performed as above incubating 5 nmol of SAHB with 10 pmol of rVLCAD in 500 μL total volume. Densitometry analyses were performed using ImageJ software.

VLCAD [2] = target: T1, VLCAD; assay: 19F NMR binding study with fluorinated SAHB; settings: fluorinated SAHB 25 μM, VLCAD 0-125 μM
Protocol: (§1) To measure the direct binding interaction, ^19F NMR binding studies were conducted using fluorinated analogs of MCL-1 SAHBD. […] Both SAHBs, however, bind MCL-1ΔNΔC, as illustrated by a chemical shift of the peptide NMR peak in both cases (FIG. 15). […] To perform these experiments, N-terminal Btn-PEG analogs of the peptides were immobilized onto streptavidin probes that were then placed into protein solutions at a variety of concentrations to measure ligand-target association.
VLCAD. Mature human VLCAD lacking its cleavable leader sequence (aa 40-655) (NP_000009.1) was subcloned into the pET19b vector (Novagen) using NdeI and XhoI restriction sites. Correct insertion was confirmed by DNA sequencing. […]
(§2) To determine binding of SAHBs to VLCAD, fluorinated SAHB (25 μM) and VLCAD (0-125 μM) were mixed together in VLCAD FPLC buffer including 10% D2O to a final volume of 500 μL. […] The extent to which VLCAD bound the peptide was determined by measuring the peak width at half height (ν1/2) of the peptide ^19F signal. […] MCL-1ΔNΔC binding to SAHBs causes a change in the ^19F chemical shift of the peptide resulting in two peptide signals (instead of peak broadening), so extent of binding was quantified by measuring the peak height of “unbound” peptide relative to the bound peptide signal.

MCL-1ΔNΔC [3] = target: T2, MCL-1ΔNΔC (Homo sapiens, UniProt Q07820); assay: Biolayer interferometry; format: binding; settings: Biotin-PEG peptide immobilized on streptavidin sensors
T2 construct: The MCL-1ΔNΔC construct was grown and expressed in E. coli as previously described; made in house; host or cells: E. coli BL21(DE3)

VLCAD [4] = target: T1, VLCAD; assay: Biolayer interferometry; format: binding; settings: Biotin-PEG peptide immobilized on streptavidin sensors
Protocol: as §1
VLCAD. Mature human VLCAD lacking its cleavable leader sequence (aa 40-655) (NP_000009.1) was subcloned into the pET19b vector (Novagen) using NdeI and XhoI restriction sites. Correct insertion was confirmed by DNA sequencing. The 10× His-tagged VLCAD construct was expressed in BL21(DE3) E. coli, and once cells reached an OD of 0.8 after growing at 37° C., they were induced with 0.5 mM […] (IPTG) (Gold Biotechnology I2481C) at 37° C. for 4 hours. Bacterial pellets were resuspended in lysis buffer (500 mM NaCl, 50 mM HEPES, 5% glycerol, pH 7.5, complete protease inhibitor tablet) and lysed by microfluidization (M-110L; Microfluidics). […]
BLI binding measurements were performed using an Octet Red384 System (ForteBio). […] Binding parameters were calculated using the accompanying Octet Software version 9 (ForteBio).

MCL-1ΔNΔC [5] = target: T2, MCL-1ΔNΔC; assay: 19F NMR binding study with fluorinated SAHB; settings: fluorinated SAHB 25 μM, MCL-1ΔNΔC 0-45 μM
Protocol: as §1
MCL-1ΔNΔC. The MCL-1ΔNΔC construct was grown and expressed in E. coli as previously described (see, e.g., Stewart, Nat Chem Biol., 6(6):595-601 (2010)). Transformed BL21(DE3) E. coli were grown at 37° C. to an OD of 0.8, after which they were induced with 0.5 mM IPTG. […]
as §2

T2 sequence (Q07820 172-320 limits assumed, stated change not applied): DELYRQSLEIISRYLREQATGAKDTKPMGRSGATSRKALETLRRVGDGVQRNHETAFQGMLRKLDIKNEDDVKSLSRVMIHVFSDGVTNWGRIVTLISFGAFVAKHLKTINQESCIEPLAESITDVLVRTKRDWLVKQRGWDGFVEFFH
Chain of endogenous MCL-1 (P97287 152-308 limits assumed): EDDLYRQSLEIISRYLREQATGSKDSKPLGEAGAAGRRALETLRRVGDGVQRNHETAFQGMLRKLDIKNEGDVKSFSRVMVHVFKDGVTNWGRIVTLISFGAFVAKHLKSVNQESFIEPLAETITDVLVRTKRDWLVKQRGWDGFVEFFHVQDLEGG

pull down of recombinant VLCAD (VLCAD [1])	Substance	pull down of endogenous MCL-1 from cellular lysates (endogenous MCL-1)	19F NMR peptide peak broadening on VLCAD titration (VLCAD [2])	biolayer interferometry association with MCL-1 (MCL-1ΔNΔC [3])	biolayer interferometry association with VLCAD (VLCAD [4])	19F NMR binding to MCL-1ΔNΔC (chemical shift of the peptide peak) (MCL-1ΔNΔC [5])
pulled down recombinant VLCAD	Btn-MCL-1 SAHBD: N-terminally biotinylated stapled peptide designed based on the sequence of MCL-1's BH3 domain (Biotin-RKALETLRRVGDGV[S5]RNH[S5]TAF; staple 15-19)	readily identified in the eluates	–	–	–	–
–	MCL-1 SAHBB: MCL-1 SAHB containing a different staple position (RKAL[S5]TLR[S5]VGDGVQRNHETAF; staple 5-9)	–	little to no peak broadening	bind to MCL-1	no detectable binding interaction	binds directly
